Patent publication US20180193457A1 (University of Washington, published 2018)

Key:
[1] = target: T1, wild-type FimH adhesin variant of the uropathogenic E. coli strain J96 (FimH^wt) (uropathogenic E. coli strain J96, UniProt P08191 22-300); test: cell-based or functional assay
[2] = target: T1, wild-type FimH adhesin variant of the …; test: SPR2 (Analytical Biopharmacy Core), FimH^wt fimbriae on CM5 chip, mAb as analyte, 1:1 Langmuir model

B1: mAb926 (antibody, V domains shown)
VH: QVQLQQSGAELATPGASVKMSCKASGYTSTNYWIHWVKQRPGQGLEWIGYINPTSGYTEYNQNFKDKATLTADKSSSTAYMQLTSLTSEDSAVYYCARGVIRDFWGQGTTLTVSS
VL: DVLMTQTPLSLPVSLGDQASISCRSSQNIVHNNGNTYLEWYLQSPGQSPKLLIYKVSNRFSGVPDRFSGSGSGTDFTLKISRVEAEDLGVYYCFQGSHVPFTFGSGTKLEIK
notes: also called mA926; mAb296
[1]
  half-maximal inhibitory concentration (IC50) of bacterial adhesion to mannosylated (yeast mannan) surfaces: 0.4 nM
[2]
  Kd: 0.22 nM
